B1: 1-567: recombinant Apaf-1 fragment, residues 1-567 of SEQ ID NO: 1 (protein, listed as Homo sapiens)
chain: MDAKARNCLLQHREALEKDIKTSYIMDHMISDGFLTISEEEKVRNEPTQQQRAAMLIKMILKKDNDSYVSFYNALLHEGYKDLAALLHDGIPVVSSSSGKDSVSGITSYVRTVLCEGGVPQRPVVFVTRKKLVNAIQQKLSKLKGEPGWVTIHGMAGCGKSVLAAEAVRDHSLLEGCFPGGVHWVSVGKQDKSGLLMKLQNLCTRLDQDESFSQRLPLNIEEAKDRLRILMLRKHPRSLLILDDVWDSWVLKAFDSQCQILLTTRDKSVTDSVMGPKYVVPVESSLGKEKGLEILSLFVNMKKADLPEQAHSIIKECKGSPLVVSLIGALLRDFPNRWEYYLKQLQNKQFKRIRKSSSYDYEALDEAMSISVEMLREDIKDYYTDLSILQKDVKVPTKVLCILWDMETEEVEDILQEFVNKSLLFCDRNGKSFRYYLHDLQVDFLTEKNCSQLQDLHKKIITQFQRYHQPHTLSPDQEDCMYWYNFLAYHMASAKMHKELCALMFSLDWIKAKTELVGPAHLIHEFVEYRHILDEKDCAVSENFQEFLSLNGHLLGRQPFPNIVQLG
B2: 1-611: recombinant Apaf-1 protein, residues 1-611 (protein, UniProt O14727 1-611, looked up, fragment)
chain: MDAKARNCLLQHREALEKDIKTSYIMDHMISDGFLTISEEEKVRNEPTQQQRAAMLIKMILKKDNDSYVSFYNALLHEGYKDLAALLHDGIPVVSSSSGKDSVSGITSYVRTVLCEGGVPQRPVVFVTRKKLVNAIQQKLSKLKGEPGWVTIHGMAGCGKSVLAAEAVRDHSLLEGCFPGGVHWVSVGKQDKSGLLMKLQNLCTRLDQDESFSQRLPLNIEEAKDRLRILMLRKHPRSLLILDDVWDSWVLKAFDSQCQILLTTRDKSVTDSVMGPKYVVPVESSLGKEKGLEILSLFVNMKKADLPEQAHSIIKECKGSPLVVSLIGALLRDFPNRWEYYLKQLQNKQFKRIRKSSSYDYEALDEAMSISVEMLREDIKDYYTDLSILQKDVKVPTKVLCILWDMETEEVEDILQEFVNKSLLFCDRNGKSFRYYLHDLQVDFLTEKNCSQLQDLHKKIITQFQRYHQPHTLSPDQEDCMYWYNFLAYHMASAKMHKELCALMFSLDWIKAKTELVGPAHLIHEFVEYRHILDEKDCAVSENFQEFLSLNGHLLGRQPFPNIVQLGLCEPETSEVYQQAKLQAKQEVDNGMLYLEWINKKNITNLSRLVV
B3: 1-570: recombinant Apaf-1 fragment, residues 1-570 of SEQ ID NO: 1 (protein, listed as Homo sapiens)
chain: MDAKARNCLLQHREALEKDIKTSYIMDHMISDGFLTISEEEKVRNEPTQQQRAAMLIKMILKKDNDSYVSFYNALLHEGYKDLAALLHDGIPVVSSSSGKDSVSGITSYVRTVLCEGGVPQRPVVFVTRKKLVNAIQQKLSKLKGEPGWVTIHGMAGCGKSVLAAEAVRDHSLLEGCFPGGVHWVSVGKQDKSGLLMKLQNLCTRLDQDESFSQRLPLNIEEAKDRLRILMLRKHPRSLLILDDVWDSWVLKAFDSQCQILLTTRDKSVTDSVMGPKYVVPVESSLGKEKGLEILSLFVNMKKADLPEQAHSIIKECKGSPLVVSLIGALLRDFPNRWEYYLKQLQNKQFKRIRKSSSYDYEALDEAMSISVEMLREDIKDYYTDLSILQKDVKVPTKVLCILWDMETEEVEDILQEFVNKSLLFCDRNGKSFRYYLHDLQVDFLTEKNCSQLQDLHKKIITQFQRYHQPHTLSPDQEDCMYWYNFLAYHMASAKMHKELCALMFSLDWIKAKTELVGPAHLIHEFVEYRHILDEKDCAVSENFQEFLSLNGHLLGRQPFPNIVQLGLCE

Format: physicochemical, E. coli
Protocol: Preferably, solubility of the fragment is assessed in a lysate of a bacterial culture used to produce the fragment at a concentration of at least 1 milligram per liter of bacterial culture.
All constructs for protein expression were generated using a standard PCR-based cloning strategy, and the identity of individual clones was verified by double-stranded plasmid sequencing. A soluble Apaf-1 fragment (residues 1-591, sequence (SEQ ID NO: 1) shown in FIG. 1) was over-expressed in Escherichia coli strain BL21(DE3) using plasmid vector pET29 having the nucleotide sequence described by Jiang et al. (2000, J. Biol. Chem. 275:31199-31203) operatively ligated therein. The coding sequence included an additional sequence encoding eight amino acid residues at its carboxy-terminal end (i.e., linked to residue 591 in the translated protein). These residues (Leu-Glu-His6) included a nickel-binding hexa-histidine sequence used for metal affinity chromatographic purification of the expressed protein. Soluble Apaf-1 was purified from the cell lysate using a Ni-NTA (nitrilotriacetic acid-ligated nickel; Qiagen) chromatography column. Dithiothreitol (DTT) and ethylenediamine tetraacetic acid (EDTA) were added to the eluted fraction in final concentrations of 5 millimolar each. After incubation for 30 minutes on ice, the protein solution was applied to an anion-exchange column (Source-15Q, Pharmacia) for further purification.

Molecule | Solubility | solubility and solution behavior (in words)
B1 | +++ | good solubility and solution behavior
B2 | – | good solubility and solution behavior
B3 | +++ | good solubility and solution behavior

Reference: patent publication US7432093B2, “Soluble, functional apoptotic protease-activating factor 1 fragments” (The Trustees of Princeton University, priority 2004, dated 2008)
